# Results taken from the RNAGym collection of RNA variant scans (doi:10.1073/pnas.2313332121).
# For some assays here: Variants at the floor of the assay were thinned out.
# B1: TPR t1 (parent)
# chain: GACCAAUCUGCCCUCAGAGCUCGAGAACAUCUUCGGAUGCAGAGGAGGCAGGCUUCGGUGGCGCGAUAGCGCCAACGUCCUCAACCUCCAAUGCAUCCCACCACAUGAUGAUGCCUGAAGAGCCUUGGUUUUUUG
# B2: TPR 5TU (parent)
# chain: GGAUCUUCUCGAUCUAACAAAAAAGACAAAUCUGCCACAAAGCUUGAGAGCAUCUUCGGAUGCAGAGGCGGCAGCCUUCGGUGGCGCGAUAGCGCCAACGUUCUCAACUAUGACACGCAAAACGCGUGCUCCGUUGAAUGGAGUUUAUCAUG
# Variants of: B1
# Experiment: polymerase ribozyme fitness, log enrichment relative to wild type (log ratio); higher = more active; in vitro selection for triplet polymerase activity
# Procedure, shortened: (§1)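 Mutant libraries for each subunit of a heterodimeric triplet polymerase ribozyme were made by PCR and then transcribed. Each library underwent one round of in vitro selection in triplicate: annealing with a biotinylated primer, the partner subunit and triplets, frozen incubation at −7 °C, gel excision of extended constructs, streptavidin-bead capture and RT-PCR. Input and output libraries were Illumina-sequenced, and only genotypes with ≥10 input reads and ≥1 read per output were kept. Fitness is the logarithm, base 2, of genotype enrichment over wild-type enrichment, computed from inverse-variance-weighted replicate averages.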
row,Variant,polymerase ribozyme fitness (log ratio)
1,C3U U9A G69C C82A,-1.37
2,C3U G23A,-5.54
3,C12A C53U U106G G113C G127C,-5.83
4,U9C C89A,-0.733
5,A6U C8A G71U C101G,-1.45
6,G61U A74C C123G,-5.28
7,C15G C62U A90G U126A,-3.64
8,G69A C86U,-3.19
9,A27U C56G G117U C124G,-4.92
10,U9A G48C C86A C101A C114U C124U,-2.84
11,A29G A37U A95C,-3.29
12,G45U C49G C53U C88G,-0.226
13,A5U G113U C124A,-3.25
14,G23A U112A,-4.45
15,U7A C8A C40U C79G C102U G113C U129G U130A,-7.42
16,C11G A41G,0.309
17,A43U C88G A95U,-3.19
18,A43U C53U C72A A91U A105G U106A U125G,-2.96
19,G17A C114A,-5.13
20,G19U G69U G110C,-3.55
21,C8G G107U,-5
22,C56A A84C,-1.1
23,A16C C101A G120A,-3.59
24,U9G U14A A46U A68G,-4.4
25,U55G C56A U106A,-1.04

row,Variant,polymerase ribozyme fitness (log ratio)
1,C3G G47C,-3.72
2,C34A A83C,-3.65
3,U81A U87C A121G,1.6
4,C15G A18U G63C A91C,-4.66
5,U59C C97U C114G,-4.47
6,C11A C12U G25U C56U G69C C98U G110A,-6.12
7,C12A G61U C79A,-1.28
8,C70G A83G U112C,-3.8
9,G47U G120C G127C,-1.64
10,A37U G39U,-1.39
11,C28G A37C A91C,-6.42
12,G10U U92C,-0.873
13,C11U G42C C64U C94U,-1.83
14,C49U G113U C114U,-2.07
15,A5C G60A G61A C114A,-4.47
16,C72G C99U,-3.45
17,A41G A83U C99U C115A U131G,-4.22
18,C114G G128A U130A,-5.53
19,G61U U131A,-0.736
20,U33A G48U G69U C97G,-3.18
21,A46G C56U,-0.0715
22,C13G C28U C101U,-4.7
23,U14C A84C,-2.42
24,G52U C124A,0.485
25,C76A U106A,-1.33

# Variants of: B2
# Experiment: as above
# Procedure, shortened: as §1
row,Variant,polymerase ribozyme fitness (log ratio)
1,A3U C8G C51A A89G U90G A120U G133C,≤ -4.2
2,U4C C69G G141U A147U,-1.91
3,A3U A89C C95A A110C,≤ -4.2
4,A3G C85A,-1.17
5,U4C C76U,-0.762
6,U4A C36G C131A G136A,≤ -4.2
7,A3C U9A A73U U144A C149G,≤ -4.2
8,U4A C8U G46C C93A G100A C118U,≤ -4.2
9,A3U G50U U145C,-0.472
10,U4G G48A U77G G83C U135A,≤ -4.2
11,A3U C96U,-0.0857
12,U4G A22U U148C,-3.08
13,U4A A60U A97C U109A,-3
14,U4G A30G C32A C85A G141C,≤ -4.2
15,A3G U13G A23C C43A C87U,≤ -4.2
16,A3G A39U G83U G84U C114U A119G,≤ -4.2
17,A3G A22G A24C A49U C76A C131G,≤ -4.2

row,Variant,polymerase ribozyme fitness (log ratio)
1,A3U C32U G59A G83C C129U A137C,≤ -4.2
2,A3U A30U G34U G58A C87G C95U C131G,≤ -4.2
3,U4C C10G A17U A22G C36U U78A G92A C118U,≤ -4.2
4,A3U G83A A119G G141C,-1.17
5,A3G U6A A40G C87A,≤ -4.2
6,U4A C35A U53C C96G A122U,≤ -4.2
7,U4A U31G A37C G86C C123G,≤ -4.2
8,U4A G11U G50A C76U G84U G94C G126U,≤ -4.2
9,A3U A29C G68C A73G,≤ -4.2
10,A3U A30G A49C,≤ -4.2
11,U4C C18U U53A A73G U134C,-2.31
12,U4C A47C G84A G88A G92U A142G,≤ -4.2
13,A3U C35U U77C G84C A89G C118U,≤ -4.2
14,U4G U13C A19G A52G U56G A64U G80C A91G C95G C105U U109A A119U,≤ -4.2
15,U4G U61G C76G C93G C103U,≤ -4.2
16,A3U C5A C35U C87A,≤ -4.2
